Target: T1, mini cellulose-binding protein A (mCbpA), P38058
T1 chain: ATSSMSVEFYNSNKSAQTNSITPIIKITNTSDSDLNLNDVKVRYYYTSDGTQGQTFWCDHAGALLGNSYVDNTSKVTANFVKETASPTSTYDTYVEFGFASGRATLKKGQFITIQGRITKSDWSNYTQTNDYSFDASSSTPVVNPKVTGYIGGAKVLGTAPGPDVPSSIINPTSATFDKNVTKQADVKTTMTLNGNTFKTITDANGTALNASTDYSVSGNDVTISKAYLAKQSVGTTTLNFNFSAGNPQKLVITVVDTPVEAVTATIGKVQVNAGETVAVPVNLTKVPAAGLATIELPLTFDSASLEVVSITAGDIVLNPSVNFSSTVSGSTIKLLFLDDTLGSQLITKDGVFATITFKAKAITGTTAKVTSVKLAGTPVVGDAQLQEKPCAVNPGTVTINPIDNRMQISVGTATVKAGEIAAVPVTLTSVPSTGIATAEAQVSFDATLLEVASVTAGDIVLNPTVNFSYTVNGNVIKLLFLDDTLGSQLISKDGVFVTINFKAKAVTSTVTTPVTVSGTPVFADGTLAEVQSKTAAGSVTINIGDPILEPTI

B1: arabinose isomerase (LsAraA) linked with the dockerin module of the endo-β-1,4-glucanase B gene (protein)
chain: SLSARVSFKKHVKKGVFIMLNTENYEFWFVTGSQSLYGEETLRSVEKDAKEIVEKLNASRQLPYPIVFKLVATTADNITKVMKEANYNDHVAGVITWMHTFSPAKNWIRGTKLLQKPLLHLATQFLNKIPYDTIDFDYMNLNQSAHGDREYAFINARLRKNNKIISGYWGDEDVQKAMAKWMDVAVAYNESFKIKVVTFADKMRNVAVTDGDKVEAQIKFGWTVDYWGVGDLVAEVNAVSEADIDAKYADLQKEYDFVEGQNTPEKFEHNVKYQIREYFGLKKFMDDRGYTAFTTNFEDLVGLEQLPGLAAQLLMAEGYGFAGEGDWKTAALDRLLKIMAHNEKTVFMEDYTLDLRQGHEAILGSHMLEVDPSIASDKPRVEVHPLDIGDKDDPARLVFTGMQGDAVDVTMADYGDEFKLMSYDVRGNKPEADTPHLPVAKQLWTPKQGLREGAVGWLTVGGGHHTVLSFAVDSEQLQDLSHLFDLTYVNIKTQTQTSYSLGDVNKDGKVNAIDYAVLKSILLGTNTNVDLSVSDMNKDGKVNALDLAVLKKMLLS
- tagatose conversion activity using galactose as a substrate: the degradation activity was increased in the order of mCbpA (M), arabinose isomerase (LsAraA, L) and arabinose isomerase-mCbpA (LM)

Reference: patent US20210009982
